{"source": "patent US20230093399A1", "about": "“METHODS FOR GENERATING PLURIPOTENT STEM CELL-DERIVED BROWN FAT CELLS” (AgeX Therapeutics, Inc., priority 2013, published 2023)", "molecules": {"B1": {"name": "BMP4: Bone Morphogenetic Protein 4, TGF-beta superfamily member (protein, UniProt P12644 293-408, looked up)", "Bone morphogenetic protein 4": "SPKHHSQRARKKNKNCRRHSLYVDFSDVGWNDWIVAPPGYQAFYCHGDCPFPLADHLNSTNHAIVQTLVNSVNSSIPKACCVPTELSAISMLYLDEYDKVVLKNYQEMVVEGCGCR"}}, "test_system": "cell line E163", "assay": "Differentiation of cell line E163 in HyStem, gene expression", "type": "cell-based, human", "conditions": "E163 passage 12; 21 days in HyStem with 10 ng/mL BMP4", "method": "HyStem-C (BioTime, Inc. Alameda, Calif.) (BioTime, Alameda, Calif., USA) was reconstituted following the manufacturer's instructions. Briefly, the HyStem component (thiol modified hyaluronan, 10 mg) was dissolved in 1.0 ml degassed deionized water for about 20 minutes to prepare a 1% w/v solution. The Gelin-S component (thiol modified gelatin, 10 mg) was dissolved in 1 ml degassed deionized water to prepare a 1% w/v solution, and PEGDA (PEG diacrylate, 10 mg) was dissolved in 0.5 ml degassed deionized water to prepare a 2% w/v solution. HyStem (1 ml, 1% w/v) was mixed with Gelin-S (1 ml, 1% w/v) immediately before use. Pelleted cells were resuspended in recently prepared HyStem:Gelin-S (1:1 v/v) mix described above. Upon the addition of crosslinker PEGDA, the cell suspension, at a final concentration of 2.0×10^7 cells/ml, was aliquoted at 25 μl aliquot four to five times into each well of 6 well plates (Corning 3516) after partial gelation to form attached beads. Following complete gelation (20 minutes), chondrogenic medium was added to each well (i.e about 4 ml/each well of a 6 well plate). […]"}
{"molecule": "B1", "values": [{"measurement": "adipocyte markers FABP4 and CD36 and candidate BAT cell progenitor markers such as C19orf80", "result": "relatively high levels"}]}
